Laboratory results: the supplement of paper PMC11246515
± gives the standard deviation of the averaged measurements.

Experiment: total protein half-life in vivo (active degradation + dilution); higher = more stable protein
[1] = E. coli NCM3722 delta-clpP delta-lon delta-hslV, growth: N-lim chemostat, doubling time 6 h
[2] = E. coli NCM3722 delta-clpP, growth: N-lim chemostat, doubling time 6 h
[3] = E. coli NCM3722 delta-hslV, growth: N-lim chemostat, doubling time 6 h
[4] = E. coli NCM3722 delta-lon, growth: N-lim chemostat, doubling time 6 h
[5] = E. coli NCM3722 delta-smpB, growth: N-lim chemostat, doubling time 6 h
[6] = wild type E. coli NCM3722, growth: C-lim chemostat, doubling time 3 h
[7] = wild type E. coli NCM3722, growth: C-lim chemostat, doubling time 6 h
[8] = wild type E. coli NCM3722, growth: C-lim chemostat, doubling time 12 h
[9] = wild type E. coli NCM3722, growth: N-lim chemostat, doubling time 6 h
[10] = wild type E. coli NCM3722, growth: N-lim chemostat, doubling time 12 h
[11] = wild type E. coli NCM3722, growth: P-lim chemostat, doubling time 6 h
[12] = wild type E. coli NCM3722, growth: P-lim chemostat, doubling time 12 h

Sequence | total protein half-life in vivo [1] | total protein half-life in vivo [2] | total protein half-life in vivo [3] | total protein half-life in vivo [4] | total protein half-life in vivo [5] | total protein half-life in vivo [6] | total protein half-life in vivo [7] | total protein half-life in vivo [8] | total protein half-life in vivo [9] | total protein half-life in vivo [10] | total protein half-life in vivo [11] | total protein half-life in vivo [12]
MTITSLDGYRWLKNDIIRGNFQPDEKLRMSLLTSRYALGVGPLREALSQLVAERLVTVVNQKGYRVASMSEQELLDIFDARANMEAMLVSLAIARGGDEWEADVLAKAHLLSKLEACDASEKMLDEWDLRHQAFHTAIVAGCGSHYLLQMRERLFDLAARYRFIWLRRTVLSVEMLEDKHDQHQTLTAAVLARDTARASELMRQHLLTPIPIIQQAMAGN | 5.31 ± 0.62 h | 2.81 ± 0.13 h | 2.106 ± 0.011 h | 3.54 ± 0.24 h | 2.18 ± 0.088 h | 1.96 ± 0.16 h | 3.69 ± 0.43 h | 5.04 ± 0.48 h | 1.99 ± 0.21 h | 2.52 ± 0.064 h | 1.56 h | 3.14 ± 1.1 h
MTIWVDADACPNVIKEILYRAAERMQMPLVLVANQSLRVPPSRFIRTLRVAAGFDVADNEIVRQCEAGDLVITADIPLAAEAIEKGAAALNPRGERYTPATIRERLTMRDFMDTLRASGIQTGGPDSLSQRDRQAFAAELEKWWLEVQRSRG [P0A8D3] | 3.56 ± 0.87 h | 3.08 h | 3.2 ± 0.18 h | 3.89 ± 0.53 h | 3.16 ± 0.032 h | 2.73 ± 0.094 h | 4.33 ± 0.21 h | 8.06 ± 2.6 h | 3.55 ± 0.43 h | 4.5 ± 0.6 h | 5.28 ± 0.43 h | 9.109 ± 0.034 h
MTIYFINWVADYELKMIQYLKKKYKIKNITTPKKYNWINKKISKIGMDNAWLGRLFIKHYLNDIKKDDIIIINDSVVNKGINKQILKNINCHKVLLLRNTVGEDFILDNANYFDIIYDFEHRFIGNEKIKAIEQFFPIGMDEIRNYSLSDKNNSQPICFFLGRDKGRLQIINELAERLTTLGCKLDFNVVKDKTSSTTSKYLIEKQISYEENIRRTLNANIIVDITKENQSGWTLRILEALFFNKKLITNNINVFGSEIYSESRFFIIGHDDWDKLEYFINSSVKPMDYDSLYKFSPDKMMSTIVSDFIDK | 7.07 ± 1.2 h |  | 5.4 ± 0.26 h |  | 4.651 ± 0.02 h | 2.87 ± 0.037 h | 4.87 ± 0.59 h | 9.41 ± 2.8 h | 5.54 ± 0.49 h | 10.8 ± 2.5 h | 4.59 ± 0.58 h | 10.1 ± 1 h
MTKQVKIYHNPRCSKSRETLNLLKENGVEPEVVLYLETPADAATLRDLLKILGMNSARELMRQKEDLYKELNLADSSLSEEALIQAMVDNPKLMERPIVVANGKARIGRPPEQVLEIVG |  | 5.8 h | 3.65 ± 0.025 h | 4.45 ± 0.96 h |  | 3.47 ± 0.39 h | 5.12 ± 0.37 h | 7.332 ± 0.073 h | 2.58 ± 0.029 h | 4.7 ± 1.2 h | 3.87 ± 0.41 h | 8.07 ± 0.2 h
MTKTVSTSKKPRKQHSPEFRSEALKLAERIGVTAAARELSLYESQLYNWRSKQQNQQTSSERELEMSTEIARLKRQLAERDEELAILQKAATYFAKRLK [P0CF66] |  |  |  |  |  |  |  | 3.53 h |  |  |  | 5.25 ± 0.29 h
MTLDLPRRFPWPTLLSVCIHGAVVAGLLYTSVHQVIELPAPAQPISVTMVTPADLEPPQAVQPPPEPVVEPEPEPEPIPEPPKEAPVVIEKPKPKPKPKPKPVKKVQEQPKRDVKPVESRPASPFENTAPARLTSSTATAATSKPVTSVASGPRALSRNQPQYPARAQALRIEGQVKVKFDVTPDGRVDNVQILSAKPANMFEREVKNAMRRWRYEPGKPGSGIVVNILFKINGTTEIQ | 3.05 ± 0.064 h | 3.18 ± 0.081 h | 2.27 ± 0.21 h | 1.79 ± 0.029 h | 2.92 ± 1.7 h | 1.93 ± 0.35 h | 3.6 ± 0.45 h | 5.81 ± 0.11 h | 2.33 ± 0.17 h | 3.29 ± 0.16 h | 3.17 ± 0.13 h | 6.09 ± 0.82 h
MTLLASLRDWLKAQQLDAVLLSSRQNKQPHLGISTGSGYVVISRESAHILVDSRYYVEVEARAQGYQLHLLDATNTLTTIVNQIIADEQLQTLGFEGQQVSWETAHRWQSELNAKLVSATPDVLRQIKTPEEVEKIRLACGIADRGAEHIRRFIQAGMSEREIAAELEWFMRQQGAEKASFDTIVASGWRGALPHGKASDKIVAAGEFVTLDFGALYQGYCSDMTRTLLVNGEGVSAESHLLFNVYQIVLQAQLAAISAIRPGVRCQQVDDAARRVITEAGYGDYFGHNTGHAIGIEVHEDPRFSPRDTTTLQPGMLLTVEPGIYLPGQGGVRIEDVVLVTPQGAEVLYAMPKTVLLTGEA | 6.04 h |  |  |  |  |  |  | 3.72 h |  |  |  | 
MTLPKIKQVRAWFTGGATAEKGAGGGDYHDQGANHWIDDHIATPMSKYRDYEQSRQSFGINVLGTLVVEVEAENGQTGFAVSTAGEMGCFIVEKHLNRFIEGKCVSDIKLIHDQMLSATLYYSGSGGLVMNTISCVDLALWDLFGKVVGLPVYKLLGGAVRDEIQFYATGARPDLAKEMGFIGGKMPTHWGPHDGDAGIRKDAAMVADMREKCGEDFWLMLDCWMSQDVNYATKLAHACAPYNLKWIEECLPPQQYESYRELKRNAPVGMMVTSGEHHGTLQSFRTLSETGIDIMQPDVGWCGGLTTLVEIAAIAKSRGQLVVPHGSSVYSHHAVITFTNTPFSEFLMTSPDCSTMRPQFDPILLNEPVPVNGRIHKSVLDKPGFGVELNRDCNLKRPYSH |  |  |  |  |  | 2.53 ± 0.29 h | 3.97 ± 0.25 h | 7.51 ± 1.1 h | > 8 h |  |  | 9.69 h
MTLQQQIIKALGAKPQINAEEEIRRSVDFLKSYLQTYPFIKSLVLGISGGQDSTLAGKLCQMAINELRLETGNESLQFIAVRLPYGVQADEQDCQDAIAFIQPDRVLTVNIKGAVLASEQALREAGIELSDFVRGNEKARERMKAQYSIAGMTSGVVVGTDHAAEAITGFFTKYGDGGTDINPLYRLNKRQGKQLLAALACPEHLYKKAPTADLEDDRPSLPDEVALGVTYDNIDDYLEGKNVPQQVARTIENWYLKTEHKRRPPITVFDDFWKK | 4.93 ± 0.19 h | 5.28 ± 1.6 h | 4.91 ± 0.29 h | 5.15 ± 0.71 h | 4.58 ± 0.013 h | 3.37 ± 0.64 h | 6.28 ± 0.098 h | 11.06 ± 0.038 h | 4.67 ± 0.63 h | 7.98 ± 0.17 h | 5.737 ± 0.042 h | 11.6 ± 0.31 h
MTLTASSSSRAVTNSPVVVALDYHNRDDALAFVDKIDPRDCRLKVGKEMFTLFGPQFVRELQQRGFDIFLDLKFHDIPNTAAHAVAAAADLGVWMVNVHASGGARMMTAAREALVPFGKDAPLLIAVTVLTSMEASDLVDLGMTLSPADYAERLAALTQKCGLDGVVCSAQEAVRFKQVFGQEFKLVTPGIRPQGSEAGDQRRIMTPEQALSAGVDYMVIGRPVTQSVDPAQTLKAINASLQRSA | 5.11 ± 0.11 h | 6.25 ± 2.3 h | 4.479 ± 0.025 h | 5.08 ± 0.2 h | 4.77 ± 0.33 h | 2.89 ± 0.2 h | 6.45 ± 1 h | 9.6 ± 0.32 h | 4.77 ± 0.15 h | 8.44 ± 1.3 h | 5.08 ± 0.49 h | 10.2 ± 0.27 h
